Experimental data reported in patent US9696316B2, “Conformationally dynamic peptides” (SYSTEM OF SYSTEMS ANALYTICS, INC., priority 2009, dated 2017).

Experiments:
Type in all cases: binding
Aβ42 Fiber = Aβ42 Fiber (Homo sapiens, UniProt P05067); test: In vitro centrifugation-based interaction assay (insoluble complexes); details: 40% TFE, 3 hours incubation, 17,000×g 30 minutes
Method: In this assay, soluble peptide probes are combined with insoluble target protein fibers in an in vitro centrifugation-based interaction assay. Peptide probe that binds to the target protein will be detected in an insoluble pellet, which may be isolated using centrifugation. […] Aβ42 Fiber (target protein) and peptide probe (SEQ ID NO:1) are incubated for 3 hours in the presence of increasing amounts of trifluoroethanol (TFE). The samples are centrifuged at 17,000×g for 30 minutes, and the pellets are denatured in sample buffer and analyzed by SDS-PAGE. Reference samples (Input) are shown for comparison.

[1] = biological target: biotinylated Aβ42 oligomers (Homo sapiens, UniProt P05067); test: In vitro affinity chromatography-based interaction assay (streptavidin beads); details: 4 μM probe
biotinylated Aβ42 oligomers, sequence (P05067 672-713 limits assumed): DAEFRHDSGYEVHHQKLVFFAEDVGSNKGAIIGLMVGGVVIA
Method: In this assay, soluble peptide probes are combined with, for example, soluble target protein oligomers in an in vitro affinity chromatography-based interaction assay. For this example, target protein is labeled with an affinity molecule, such as biotin, and incubated with a labeled peptide probe. After incubation, the mixture is incubated with the capture moiety, such as streptavidin, on a support, for example a column or beads, such that the target protein is captured. After washing of unbound material, the support can be examined for detection of the labeled peptide probe, which would indicate the presence of bound target protein-peptide probe complexes on the support. Alternatively, the bound material may be eluted and then examined for detection of the labeled peptide probe. Again, detection of the labeled peptide probe would indicate the presence of target protein-peptide probe complexes in the eluant. FIGS. 5A and 15A illustrate an affinity chromatography assay using biotin-labeled target protein and streptavidin-coated beads. This type of assay is useful, for example, for assessing the efficacy of a given peptide probe. […] The beads are washed with PBS to remove unbound material and the captured material is analyzed by SDS-PAGE. […] […]

Aβ fibers = Aβ fibers (Homo sapiens, UniProt P05067); test: Aβ fiber assay in 40% TFE; details: di-pyrene labeled
Aβ fibers, sequence (P05067 672-713 limits assumed): as above
Excerpt: An Aβ fiber assay may be conducted in an organic solvent, such as 40% TFE. […] This conformation is associated with the monomer or self fluorescence of the pyrene moieties (370-410 nm; see FIG. 6). […] This conformation is associated with the excimer fluorescence of the pyrene moieties (430-530 nm; see FIG. 6).

Aβ42 Fiber, sequence (P05067 672-713 limits assumed): as above

KLVFFAEDVGSNKGAIIGLMK (KLVFFAEDVGSNKGAIIGLMK) [SEQ ID NO:1, Aβ protein residues 16-35, with added C-Terminal Lys]
binding of peptide probe to Aβ42 fiber (peptide band in pellet, SDS-PAGE) (Aβ42 Fiber): binding of target protein and peptide probe is clearly observed
capture of labeled peptide probe with biotinylated Aβ42 oligomer on streptavidin beads (SDS-PAGE) [1]: labeled peptide probe is only detected in the captured material, in the presence of high molecular weight oligomers
conformation in the absence of Aβ fibers (CD, data not shown) (Aβ fibers): primarily alpha helical
conformation upon introduction of an Aβ fiber substrate (pyrene excimer fluorescence) (Aβ fibers): adopts a β-sheet conformation
